Measured values: patent publication US20220226442A1 (published 2022)

Kd (L72I): 0.024 nM | Kd (I114W): 0.038 nM | Kd (M104D): 0.028 nM | Kd (N71Y): 0.018 nM | Kd (V69A): 0.023 nM | Kd (E68Q): 0.022 nM
B1: CD25 (receptor)
chain: ELCDDDPPEIPHATFKAMAYKEGTMLNCECKRGFRRIKSGSLYMLCTGNSSHSSWDNQCQCTSSATRNTTKQVTPQPEEQKERKTTEMQSPMQPVDQASLPGHCREPPPWENEATERIYHFVVGQMVYYQCVQGYRALHRGPAESVCKMTHGKTRWTQPQLICTGEMETSQFPGEEKPQASPEGRPESETSCLVTTTDFQIQTEMAATMETSIFTTEYQHHHHHH
